We go through 4 substances from patent publication KR20120084755A.

The test addresses RSV A2 바이러스의 F 단백질 (Respiratory Syncytial Virus (RSV), strain A2) (UniProt P03420). As to the kind of experiment: cell-based or functional assay.
Sequence of UniProt P03420 (P03420 26-574): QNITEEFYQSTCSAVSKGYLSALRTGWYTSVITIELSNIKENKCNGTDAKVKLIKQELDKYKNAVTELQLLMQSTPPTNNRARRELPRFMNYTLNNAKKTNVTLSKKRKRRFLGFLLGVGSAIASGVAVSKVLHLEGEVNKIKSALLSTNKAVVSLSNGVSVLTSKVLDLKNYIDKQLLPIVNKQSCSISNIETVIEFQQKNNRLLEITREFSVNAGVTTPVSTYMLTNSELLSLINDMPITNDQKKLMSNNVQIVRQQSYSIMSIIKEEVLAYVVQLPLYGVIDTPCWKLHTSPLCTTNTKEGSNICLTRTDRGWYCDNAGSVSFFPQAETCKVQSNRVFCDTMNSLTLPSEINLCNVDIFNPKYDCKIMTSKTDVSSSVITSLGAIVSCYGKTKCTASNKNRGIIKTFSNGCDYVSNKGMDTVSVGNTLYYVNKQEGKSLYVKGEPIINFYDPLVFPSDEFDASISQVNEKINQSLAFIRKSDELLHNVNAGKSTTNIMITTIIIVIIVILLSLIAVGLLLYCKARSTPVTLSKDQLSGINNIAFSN
As to AM16 (antibody), the IC50, RSV A2 neutralisation on HEp2 cells (standard TCID50 culture assay) is 78.7 ng/㎖.

In the case of AM23 (antibody), the IC50, RSV A2 neutralisation on HEp2 cells (standard TCID50 culture assay) came out at 4.18 ng/㎖.

For the substance D25 (antibody), the IC50, RSV A2 neutralisation on HEp2 cells (standard TCID50 culture assay) was 1.28 ng/㎖.

For 팔리비주마브(Palivizumab) (antibody), the IC50, RSV A2 neutralisation on HEp2 cells (standard TCID50 culture assay) stood at 152 ng/㎖.
